Experimental data as given in US20030103975A1 (published 2003).

Target: human fibronectin (BD Biosciences) (human, UniProt P02751-8 32-2296, limits assumed)
Test: solid-phase saturation binding ELISA: coated fibronectin at varying concentrations, soluble integrin at 5 ng/µl, detected with LM609
Protocol: FIGS. 3A-D. Wells of a 96-well plate were coated with varying concentrations of G⁹¹⁹⁻¹²⁰⁷, G⁹¹⁹⁻¹⁰¹⁸ and G¹⁰¹⁶⁻¹²⁰⁷ (A) or fibronectin (B). αvβ3 integrin (5 ng/μl) was then added to, allowed to bind for 1 h at 37° C., and binding evaluated by ELISA using LM609 followed by a secondary antibody conjugated to alkaline phosphatase. […] is a competition binding curve. Soluble αvβ3 (5 ng/μl) was added to wells coated with G⁹¹⁹⁻¹²⁰⁷ in the presence of increasing concentrations of fibronectin at 37° C. […] In all studies, absorbance was measured at 405 nm. Each of the graphs is representative of at least three separate experiments.
ELISA Assays. Wells of 96-well non-tissue culture treated plates were coated with protein at varying concentrations for 18 h at 4° C. Each well was rinsed three times and blocked with 1% BSA in PBS for 1 h at 37° C. Soluble integrin heterodimers were diluted in binding buffer (25 mM Tris buffer, […], 1 mM MgCl2, 0.5 mM MnCl2, 0.05% BSA, pH 7.5) and added to each well for a final concentration of 5 ng/μl. After incubating for 90 min at 37° C. wells were rinsed three times in binding buffer and appropriate mouse monoclonal anti-integrin antibody was added for 1 h at 37° C. […] Absorbance at 405 nm was measured with a Vmax plate reader (Molecular Devices, Menlo Park, Calif.). Nonspecific binding was determined by the addition of 10 mM EDTA to binding buffer. […]

human fibronectin (BD Biosciences), sequence (P02751 other isoform, or with tags, fused parts or gaps limits assumed): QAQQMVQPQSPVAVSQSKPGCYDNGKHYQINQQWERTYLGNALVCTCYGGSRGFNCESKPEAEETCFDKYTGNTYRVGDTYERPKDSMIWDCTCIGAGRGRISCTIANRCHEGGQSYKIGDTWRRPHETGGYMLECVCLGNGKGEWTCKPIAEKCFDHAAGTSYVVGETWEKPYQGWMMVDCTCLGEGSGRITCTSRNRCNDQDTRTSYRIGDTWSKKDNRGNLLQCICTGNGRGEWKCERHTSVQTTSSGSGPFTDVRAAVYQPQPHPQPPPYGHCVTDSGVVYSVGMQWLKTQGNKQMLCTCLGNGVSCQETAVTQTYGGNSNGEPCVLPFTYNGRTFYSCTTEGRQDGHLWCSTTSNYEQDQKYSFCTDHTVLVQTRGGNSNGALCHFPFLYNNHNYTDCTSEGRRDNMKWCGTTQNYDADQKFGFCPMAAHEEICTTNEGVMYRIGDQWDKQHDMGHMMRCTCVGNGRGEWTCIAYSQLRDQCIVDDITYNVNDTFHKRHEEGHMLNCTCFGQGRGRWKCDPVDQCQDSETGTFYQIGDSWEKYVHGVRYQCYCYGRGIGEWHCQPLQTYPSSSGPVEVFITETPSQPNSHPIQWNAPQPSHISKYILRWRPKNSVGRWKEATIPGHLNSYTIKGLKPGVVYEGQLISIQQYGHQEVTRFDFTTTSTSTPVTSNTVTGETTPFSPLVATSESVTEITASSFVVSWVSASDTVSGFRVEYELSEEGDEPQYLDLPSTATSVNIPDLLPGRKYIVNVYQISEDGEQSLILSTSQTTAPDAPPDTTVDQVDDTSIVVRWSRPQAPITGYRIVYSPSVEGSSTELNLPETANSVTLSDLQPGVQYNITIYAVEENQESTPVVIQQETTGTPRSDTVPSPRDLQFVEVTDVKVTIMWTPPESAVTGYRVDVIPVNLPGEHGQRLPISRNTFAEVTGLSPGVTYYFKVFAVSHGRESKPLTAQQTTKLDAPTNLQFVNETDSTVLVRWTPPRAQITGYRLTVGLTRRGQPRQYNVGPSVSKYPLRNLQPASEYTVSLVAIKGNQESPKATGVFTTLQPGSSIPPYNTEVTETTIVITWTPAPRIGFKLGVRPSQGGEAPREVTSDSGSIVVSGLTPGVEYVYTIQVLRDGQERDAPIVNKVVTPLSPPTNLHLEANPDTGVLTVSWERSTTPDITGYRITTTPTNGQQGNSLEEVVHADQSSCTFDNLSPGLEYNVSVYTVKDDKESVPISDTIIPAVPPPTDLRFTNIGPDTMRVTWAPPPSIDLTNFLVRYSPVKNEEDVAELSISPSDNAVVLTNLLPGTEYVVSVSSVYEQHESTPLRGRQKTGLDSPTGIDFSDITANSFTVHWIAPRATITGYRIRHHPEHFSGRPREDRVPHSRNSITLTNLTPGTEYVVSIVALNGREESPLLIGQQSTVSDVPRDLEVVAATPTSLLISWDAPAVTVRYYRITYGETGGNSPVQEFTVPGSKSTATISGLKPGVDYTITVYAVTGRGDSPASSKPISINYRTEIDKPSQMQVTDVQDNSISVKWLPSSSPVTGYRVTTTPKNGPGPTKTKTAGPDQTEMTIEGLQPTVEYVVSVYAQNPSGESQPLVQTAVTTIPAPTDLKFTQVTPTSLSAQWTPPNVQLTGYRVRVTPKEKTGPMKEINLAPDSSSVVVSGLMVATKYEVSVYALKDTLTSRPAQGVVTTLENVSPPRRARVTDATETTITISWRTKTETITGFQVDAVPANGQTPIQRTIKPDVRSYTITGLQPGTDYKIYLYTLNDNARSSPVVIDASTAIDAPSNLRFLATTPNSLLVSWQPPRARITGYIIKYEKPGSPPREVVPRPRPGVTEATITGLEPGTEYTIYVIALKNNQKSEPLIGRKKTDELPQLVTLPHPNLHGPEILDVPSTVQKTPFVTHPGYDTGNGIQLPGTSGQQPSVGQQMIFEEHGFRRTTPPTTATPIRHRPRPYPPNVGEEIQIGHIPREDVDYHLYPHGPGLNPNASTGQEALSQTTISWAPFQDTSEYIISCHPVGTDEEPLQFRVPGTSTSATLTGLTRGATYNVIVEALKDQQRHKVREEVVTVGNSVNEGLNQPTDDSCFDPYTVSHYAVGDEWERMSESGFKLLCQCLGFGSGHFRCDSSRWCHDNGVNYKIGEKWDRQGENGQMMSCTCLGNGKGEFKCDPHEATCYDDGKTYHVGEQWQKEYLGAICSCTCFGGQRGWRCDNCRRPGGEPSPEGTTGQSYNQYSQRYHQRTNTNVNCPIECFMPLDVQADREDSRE

Kd: 15 nM
B1: soluble αvβ3 integrin heterodimer (Chemicon International) (receptor)
chain 1: FNLDVDSPAEYSGPEGSYFGFAVDFFVPSASSRMFLLVGAPKANTTQPGIVEGGQVLKCDWSSTRRCQPIEFDATGNRDYAKDDPLEFKSHQWFGASVRSKQDKILACAPLYHWRTEMKQEREPVGTCFLQDGTKTVEYAPCRSQDIDADGQGFCQGGFSIDFTKADRVLLGGPGSFYWQGQLISDQVAEIVSKYDPNVYSIKYNNQLATRTAQAIFDDSYLGYSVAVGDFNGDGIDDFVSGVPRAARTLGMVYIYDGKNMSSLYNFTGEQMAAYFGFSVAATDINGDDYADVFIGAPLFMDRGSDGKLQEVGQVSVSLQRASGDFQTTKLNGFEVFARFGSAIAPLGDLDQDGFNDIAIAAPYGGEDKKGIVYIFNGRSTGLNAVPSQILEGQWAARSMPPSFGYSMKGATDIDKNGYPDLIVGAFGVDRAILYRARPVITVNAGLEVYPSILNQDNKTCSLPGTALKVSCFNVRFCLKADGKGVLPRKLNFQVELLLDKLKQKGAIRRALFLYSRSPSHSKNMTISRGGLMQCEELIAYLRDESEFRDKLTPITIFMEYRLDYRTAADTTGLQPILNQFTPANISRQAHILLDCGEDNVCKPKLEVSVDSDQKKIYIGDDNPLTLIVKAQNQGEGAYEAELIVSIPLQADFIGVVRNNEALARLSCAFKTENQTRQVVCDLGNPMKAGTQLLAGLRFSVHQQSEMDTSVKFDLQIQSSNLFDKVSPVVSHKVDLAVLAAVEIRGVSSPDHVFLPIPNWEHKENPETEEDVGPVVQHIYELRNNGPSSFSKAMLHLQWPYKYNNNTLLYILHYDIDGPMNCTSDMEINPLRIKISSLQTTEKNDTVAGQGERDHLITKRDLALSEGDIHTLGCGVAQCLKIVCQVGRLDRGKSAILYVKSLLWTETFMNKENQNHSYSLKSSASFNVIEFPYKNLPIEDITNSTLVTTNVTWGIQPAPMPV
chain 2: GPNICTTRGVSSCQQCLAVSPMCAWCSDEALPLGSPRCDLKENLLKDNCAPESIEFPVSEARVLEDRPLSDKGSGDSSQVTQVSPQRIALRLRPDDSKNFSIQVRQVEDYPVDIYYLMDLSYSMKDDLWSIQNLGTKLATQMRKLTSNLRIGFGAFVDKPVSPYMYISPPEALENPCYDMKTTCLPMFGYKHVLTLTDQVTRFNEEVKKQSVSRNRDAPEGGFDAIMQATVCDEKIGWRNDASHLLVFTTDAKTHIALDGRLAGIVQPNDGQCHVGSDNHYSASTTMDYPSLGLMTEKLSQKNINLIFAVTENVVNLYQNYSELIPGTTVGVLSMDSSNVLQLIVDAYGKIRSKVELEVRDLPEELSLSFNATCLNNEVIPGLKSCMGLKIGDTVSFSIEAKVRGCPQEKEKSFTIKPVGFKDSLIVQVTFDCDCACQAQAEPNSHRCNNGNGTFECGVCRCGPGWLGSQCECSEEDYRPSQQDECSPREGQPVCSQRGECLCGQCVCHSSDFGKITGKYCECDDFSCVRYKGEMCSGHGQCSCGDCLCDSDWTGYYCNCTTRTDTCMSSNGLLCSGRGKCECGSCVCIQPGSYGDTCEKCPTCPDACTFKKECVECKKFDRGALHDENTCNRYCRDEIESVKELKDTGKDAVNCTYKNEDDCVVRFQYYEDSSGKSILYVVEEPECPKGPD
notes: Bought
